Our source for the stoichiometry N, binding result and Kd values is PMC10308904, “The Cytomegalovirus M35 Protein Directly Binds to the Interferon-β Enhancer and Modulates Transcription of Ifnb1 and Other IRF3-Driven Genes”.

Data set [1] concerns the target NStr-M35_S, short M35 (aa 2 to 452) with N-terminal Twin-Strep tag and TEV site (murine cytomegalovirus (MCMV)). Description: SEC-MALS; 100 μg protein on Superdex 200 Increase 10/300 in 50 mM Tris pH 7.4, 10% glycerol, 250 mM NaCl, 1 mM DTT.
The target in data set [2] is T1, M35_S (murine cytomegalovirus (MCMV) strain …, UniProt D3XDM4 2-452).
T1 sequence: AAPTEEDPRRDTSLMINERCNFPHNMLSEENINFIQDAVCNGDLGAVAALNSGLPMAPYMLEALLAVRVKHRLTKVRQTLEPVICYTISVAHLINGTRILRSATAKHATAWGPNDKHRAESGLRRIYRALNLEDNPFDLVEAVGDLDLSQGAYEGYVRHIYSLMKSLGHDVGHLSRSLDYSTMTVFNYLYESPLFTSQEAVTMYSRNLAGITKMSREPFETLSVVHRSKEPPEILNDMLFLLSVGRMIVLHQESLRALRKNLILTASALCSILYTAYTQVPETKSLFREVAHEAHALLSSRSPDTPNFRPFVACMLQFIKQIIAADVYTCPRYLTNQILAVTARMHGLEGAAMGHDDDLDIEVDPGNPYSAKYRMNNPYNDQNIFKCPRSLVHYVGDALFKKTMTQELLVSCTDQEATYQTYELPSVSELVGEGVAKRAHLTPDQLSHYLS
The experiment in a line: EMSA; 1 uM M35_S. The conditions noted are these: protein: recombinant; tags: N-terminal Twin-Strep tag removed by TEV (GS remnant likely); chain copies: 2; label: 5'-biotin on both strands; 5' overhang 1 nt each end, 56 bp. For orientation: Mobility shift assays separate free from complexed probe on a gel.

Data set [3] addresses T1, M35_S. The experiment in a line: EMSA. Particulars: protein: recombinant; tags: N-terminal Twin-Strep tag removed by TEV (GS remnant likely); chain copies: 2; label: 5'-biotin on both strands; 5' overhang 1 nt each end, 56 bp.
The target of data set [4] is T1, M35_S. The experiment in a line: EMSA; Hill coefficient 2.775. Particulars: protein: recombinant; tags: N-terminal Twin-Strep tag removed by TEV (GS remnant likely); chain copies: 2; label: 5'-biotin on both strands; 5' overhang 1 nt each end, 56 bp.
For data set [5], the target named is T1, M35_S. Description: EMSA; 0.1-10 uM M35_S; second complex at 10 uM. Particulars: protein: recombinant; tags: N-terminal Twin-Strep tag removed by TEV (GS remnant likely); chain copies: 2; label: 5'-biotin on both strands; 5' overhang 1 nt each end, 56 bp.

“NStr-M35_S, short M35 (aa 2 to 452) with N-terminal Twin-Strep tag and TEV site (domain or fragment)” gave a stoichiometry N in data set [1] of 2.

B1: Bio-hIFNb 1-38 (dsDNA)
DNA 1: TAAATGACATAGGAAAACTGAAAGGGAGAAGTGAAAGTGACATGCTACGGAATGAAT
DNA 2: AATTCATTCCGTAGCATGTCACTTTCACTTCTCCCTTTCAGTTTTCCTATGTCATTT
For the molecule B1, the binding result with M35_S [2] is “binds”.

B2: Bio-scrambled (ScrHIFNb) (dsDNA)
DNA 1: ATAAGAGAACTAAGCGGAATAAGTAAGAGATGATCGGATTAGTCGCTAAGAATGAGA
DNA 2: TTCTCATTCTTAGCGACTAATCCGATCATCTCTTACTTATTCCGCTTAGTTCTCTTA
With B2, in the data set with M35_S [3], the binding result is listed as “no binding”.

B3: Bio-hIFNb 15-38 (dsDNA)
DNA 1: ATATAAGACGGAATAAACTGAAAGGGAGAAGTGAAAGTGACATGCTACGGAATGAAT
DNA 2: AATTCATTCCGTAGCATGTCACTTTCACTTCTCCCTTTCAGTTTATTCCGTCTTATA
For the molecule B3, the binding result in the data set with M35_S [2] was “binds”.

B4: Bio-mIFNb (murine IFN-b enhancer) (dsDNA)
DNA 1: AAAATGACAGAGGAAAACTGAAAGGGAGAACTGAAAGTGGGAAATTCCTCTGAGGCA
DNA 2: CTGCCTCAGAGGAATTTCCCACTTTCAGTTCTCCCTTTCAGTTTTCCTCTGTCATTT
Consider B4, for which, in the data set with M35_S [4], the Kd amounted to 2060 nM.

B5: Bio-hIFNb (human IFN-b enhancer) (dsDNA)
DNA 1: TAAATGACATAGGAAAACTGAAAGGGAGAAGTGAAAGTGGGAAATTCCTCTGAATAG
DNA 2: ACTATTCAGAGGAATTTCCCACTTTCACTTCTCCCTTTCAGTTTTCCTATGTCATTT
Turning to B5, the binding result in the data set with M35_S [5] is on record as “binds”.

Usually stoichiometry N stands for a count of units in the complex or per binding partner. As usually defined, the Kd is the free concentration of one partner at which half of the binding sites on the other are occupied at equilibrium, for simple one-to-one binding.
